Measured values reported in the supplement of paper PMC9112550, “Optimization of the antimicrobial peptide Bac7 by deep mutational scanning” (BMC Biology, 2022).

Tested on: Escherichia coli TOP10
Assay: shrunken log2 fold change of peptide-encoding DNA abundance (4.5 h post-induction vs induction); higher = less antimicrobial activity (less host growth inhibition)
Settings: time post-induction: 4.5 h; library: site-saturation at positions 5, 18, 19, 20
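Also: peptides expressed intracellularly from a pBAD plasmid library in pooled LB shake-flask culture, induced with 0.3% L-arabinose, DNA abundance read by NGS, three biological replicates, DESeq2 with apeglm shrinkage.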

Sequence	shrunken log2 fold change
RRIRKRPPRLPRPRPRPHTYPRP	-0.101
RRIRDRPPRLPRPRPRPMECPRP	0.0176
RRIRTRPPRLPRPRPRPVKWPRP	-0.0599
RRIRDRPPRLPRPRPRPWTAPRP	-0.0482
RRIRYRPPRLPRPRPRPIQNPRP	-0.219
RRIRRRPPRLPRPRPRPPVRPRP	0.437
RRIRRRPPRLPRPRPRPIPTPRP	0.063
RRIRERPPRLPRPRPRPTTWPRP	0.0447
RRIRDRPPRLPRPRPRPGFKPRP	0.0624
RRIRWRPPRLPRPRPRPRKEPRP	0.0466
RRIRHRPPRLPRPRPRPDYNPRP	-0.901
RRIRVRPPRLPRPRPRPMLCPRP	0.121
RRIRVRPPRLPRPRPRPCPPPRP	-0.216
RRIRKRPPRLPRPRPRPLVLPRP	-0.0684
RRIRCRPPRLPRPRPRPWEMPRP	-0.0816
RRIRSRPPRLPRPRPRPECLPRP	0.18
RRIRKRPPRLPRPRPRPNEAPRP	-0.00686
RRIRSRPPRLPRPRPRPTCWPRP	1.09
RRIRERPPRLPRPRPRPRGQPRP	0.837
RRIRRRPPRLPRPRPRPNEHPRP	-0.118
RRIRWRPPRLPRPRPRPCIMPRP	-0.339
RRIRLRPPRLPRPRPRPHSFPRP	0.0434
RRIRARPPRLPRPRPRPQKDPRP	0.0524
RRIRDRPPRLPRPRPRPFNLPRP	-0.176
RRIRERPPRLPRPRPRPNSIPRP	-0.317

Sequence	shrunken log2 fold change
RRIRRRPPRLPRPRPRPSGHPRP	0.161
RRIRMRPPRLPRPRPRPWAAPRP	0.502
RRIRERPPRLPRPRPRPRTEPRP	-0.0166
RRIRDRPPRLPRPRPRPERGPRP	0.689
RRIRTRPPRLPRPRPRPLQMPRP	0.2
RRIRSRPPRLPRPRPRPERAPRP	0.399
RRIRCRPPRLPRPRPRPWNGPRP	-0.0552
RRIRMRPPRLPRPRPRPIQFPRP	-0.318
RRIRGRPPRLPRPRPRPTVCPRP	0.798
RRIRGRPPRLPRPRPRPKPKPRP	0.601
RRIRCRPPRLPRPRPRPQPPPRP	0.806
RRIRSRPPRLPRPRPRPKNYPRP	-0.547
RRIRHRPPRLPRPRPRPRRIPRP	0.0543
RRIRQRPPRLPRPRPRPNRVPRP	-0.107
RRIRRRPPRLPRPRPRPKYCPRP	0.0144
RRIRKRPPRLPRPRPRPSTRPRP	-0.114
RRIRNRPPRLPRPRPRPCCVPRP	-0.667
RRIRCRPPRLPRPRPRPIWGPRP	0.25
RRIRMRPPRLPRPRPRPKVAPRP	-0.0166
RRIRQRPPRLPRPRPRPRFIPRP	-0.398
RRIRYRPPRLPRPRPRPAQVPRP	-0.0734
RRIRQRPPRLPRPRPRPICTPRP	-0.0531
RRIRERPPRLPRPRPRPWVTPRP	-0.0915
RRIRRRPPRLPRPRPRPAFGPRP	0.348
RRIRSRPPRLPRPRPRPDSWPRP	0.0247

Sequence	shrunken log2 fold change
RRIRRRPPRLPRPRPRPQLQPRP	0.413
RRIRGRPPRLPRPRPRPVKAPRP	0.659
RRIRMRPPRLPRPRPRPETCPRP	1.67
RRIRNRPPRLPRPRPRPPQVPRP	0.0214
RRIRTRPPRLPRPRPRPMALPRP	-0.0542
RRIRMRPPRLPRPRPRPKTFPRP	0.0371
RRIRARPPRLPRPRPRPSWVPRP	-0.174
RRIRYRPPRLPRPRPRPRIFPRP	-0.603
RRIRLRPPRLPRPRPRPWDLPRP	-0.00277
RRIRIRPPRLPRPRPRPATIPRP	-0.201
RRIRIRPPRLPRPRPRPFSLPRP	-1.26
RRIRIRPPRLPRPRPRPLSNPRP	-0.893
RRIRYRPPRLPRPRPRPQIAPRP	-0.242
RRIRSRPPRLPRPRPRPSAMPRP	0.292
RRIRFRPPRLPRPRPRPFTYPRP	-0.208
RRIRYRPPRLPRPRPRPTTMPRP	-0.722
RRIRKRPPRLPRPRPRPWTTPRP	-0.0228
RRIRCRPPRLPRPRPRPLFGPRP	-0.0673
RRIRYRPPRLPRPRPRPICQPRP	-0.087
RRIRHRPPRLPRPRPRPQQRPRP	0.403
RRIRVRPPRLPRPRPRPCWPPRP	0.237
RRIRIRPPRLPRPRPRPAHPPRP	0.239
RRIRCRPPRLPRPRPRPGAAPRP	0.956
RRIRPRPPRLPRPRPRPYKEPRP	-0.382
RRIRCRPPRLPRPRPRPVYQPRP	-0.783

Sequence	shrunken log2 fold change
RRIRQRPPRLPRPRPRPSQNPRP	-0.383
RRIRRRPPRLPRPRPRPIVMPRP	-0.0167
RRIRWRPPRLPRPRPRPPHTPRP	0.494
RRIRHRPPRLPRPRPRPKIFPRP	-0.0798
RRIRGRPPRLPRPRPRPKWTPRP	0.392
RRIRCRPPRLPRPRPRPIGEPRP	-0.0453
RRIRFRPPRLPRPRPRPWSQPRP	-0.0158
RRIRVRPPRLPRPRPRPRQEPRP	-0.0401
RRIRRRPPRLPRPRPRPAISPRP	-0.0296
RRIRWRPPRLPRPRPRPEEYPRP	0.113
RRIRFRPPRLPRPRPRPHNEPRP	-0.626
RRIRQRPPRLPRPRPRPIHDPRP	0.0242
RRIRIRPPRLPRPRPRPDNYPRP	-0.199
RRIRPRPPRLPRPRPRPAFSPRP	0.117
RRIRGRPPRLPRPRPRPSMLPRP	0.58
RRIRIRPPRLPRPRPRPRPAPRP	0.286
RRIRSRPPRLPRPRPRPASYPRP	0.102
RRIRYRPPRLPRPRPRPGYCPRP	-0.235
RRIRYRPPRLPRPRPRPLIHPRP	-1.38
RRIRYRPPRLPRPRPRPCARPRP	-0.0708
RRIRWRPPRLPRPRPRPGINPRP	0.0653
RRIRARPPRLPRPRPRPWDWPRP	0.991
RRIRQRPPRLPRPRPRPRYSPRP	-0.192
RRIRPRPPRLPRPRPRPHMHPRP	-0.438
RRIRQRPPRLPRPRPRPCTIPRP	-0.00957

Sequence	shrunken log2 fold change
RRIRRRPPRLPRPRPRPEERPRP	0.34
RRIRERPPRLPRPRPRPKESPRP	0.0252
RRIRRRPPRLPRPRPRPLYVPRP	-0.379
RRIRPRPPRLPRPRPRPERQPRP	0.153
RRIRNRPPRLPRPRPRPNDCPRP	0.0423
RRIRDRPPRLPRPRPRPKREPRP	-0.024
RRIRPRPPRLPRPRPRPVMWPRP	0.385
RRIRHRPPRLPRPRPRPRTHPRP	-0.137
RRIRDRPPRLPRPRPRPPSGPRP	0.364
RRIRYRPPRLPRPRPRPWKIPRP	-0.245
RRIRDRPPRLPRPRPRPPEHPRP	-0.0245
RRIRNRPPRLPRPRPRPDFAPRP	-0.0617
RRIRIRPPRLPRPRPRPSVAPRP	0.011
RRIRWRPPRLPRPRPRPHWAPRP	-0.102
RRIRRRPPRLPRPRPRPPWHPRP	0.516
RRIRWRPPRLPRPRPRPIIQPRP	-0.151
RRIRVRPPRLPRPRPRPCDDPRP	-0.0369
RRIRYRPPRLPRPRPRPDEKPRP	-0.102
RRIRRRPPRLPRPRPRPCNEPRP	-0.0323
RRIRVRPPRLPRPRPRPGGRPRP	0.317
RRIRVRPPRLPRPRPRPGCVPRP	0.267
RRIRYRPPRLPRPRPRPHDAPRP	-0.27
RRIRFRPPRLPRPRPRPSVDPRP	-0.011
RRIRKRPPRLPRPRPRPDLAPRP	0.042
RRIRGRPPRLPRPRPRPKKLPRP	0.39

Sequence	shrunken log2 fold change
RRIRQRPPRLPRPRPRPHRGPRP	0.0502
RRIRLRPPRLPRPRPRPIIPPRP	-0.195
RRIRQRPPRLPRPRPRPNQYPRP	-0.529
RRIRQRPPRLPRPRPRPCCAPRP	0.0773
RRIRFRPPRLPRPRPRPLNEPRP	-0.226
RRIRFRPPRLPRPRPRPRIRPRP	-0.075
RRIRHRPPRLPRPRPRPFEEPRP	0.0124
RRIRQRPPRLPRPRPRPCEQPRP	-0.105
RRIRMRPPRLPRPRPRPQTHPRP	0.318
RRIRLRPPRLPRPRPRPPCWPRP	0.16
RRIRERPPRLPRPRPRPKLIPRP	-0.0786
RRIRVRPPRLPRPRPRPWNWPRP	-0.00795
RRIRARPPRLPRPRPRPMEDPRP	-0.0391
RRIRYRPPRLPRPRPRPHTGPRP	-1.06
RRIRPRPPRLPRPRPRPGFTPRP	-0.139
RRIRGRPPRLPRPRPRPNWNPRP	-0.00809
RRIRQRPPRLPRPRPRPVFNPRP	-0.291
RRIRHRPPRLPRPRPRPPAFPRP	0.0237
RRIRNRPPRLPRPRPRPGISPRP	0.0154
RRIRFRPPRLPRPRPRPNQIPRP	-0.23
RRIRHRPPRLPRPRPRPIKLPRP	-0.118
RRIRIRPPRLPRPRPRPGEGPRP	0.38
RRIRPRPPRLPRPRPRPRDPPRP	0.695
RRIRGRPPRLPRPRPRPAYFPRP	0.235
RRIRQRPPRLPRPRPRPTEFPRP	-0.113
